According to article PMC5548745, “Agonist-induced dimer dissociation as a macromolecular step in G protein-coupled receptor signaling” (Nature Communications, 2017):

B1: Frizzled 6 (FZD6), wild type, expressed as V5-FZD6-mCherry and as FZD6-GFP [human] / Frizzled 6 (FZD6), wild type, expressed as V5-FZD6-mCherry and as FZD6-GFP [human] (parent)
chain 1: HSLFTCEPITVPRCMKMAYNMTFFPNLMGHYDQSIAAVEMEHFLPLANLECSPNIETFLCKAFVPTCIEQIHVVPPCRKLCEKVYSDCKKLIDTFGIRWPEELECDRLQYCDETVPVTFDPHTEFLGPQKKTEQVQRDIGFWCPRHLKTSGGQGYKFLGIDQCAPPCPNMYFKSDELEFAKSFIGTVSIFCLCATLFTFLTFLIDVRRFRYPERPIIYYSVCYSIVSLMYFIGFLLGDSTACNKADEKLELGDTVVLGSQNKACTVLFMLLYFFTMAGTVWWVILTITWFLAAGRKWSCEAIEQKAVWFHAVAWGTPGFLTVMLLAMNKVEGDNISGVCFVGLYDLDASRYFVLLPLCLCVFVGLSLLLAGIISLNHVRQVIQHDGRNQEKLKKFMIRIGVFSGLYLVPLVTLLGCYVYEQVNRITWEITWVSDHCRQYHIPCPYQAKAKARPELALFMIKYLMTLIVGISAVFWVGSKKTCTEWAGFFKRNRKRDPISESRRVLQESCEFFLKHNSKVKHKKKHYKPSSHKLKVISKSMGTSTGATANHGTSAVAITSHDYLGQETLTEIQTSPETSMREVKADGASTPRLREQDCGEPASPAASISRLSGEQVDGKGQAGSVSESARSEGRISPKSDITDTGLAQSNNLQVPSSSEPSSLKGSTSLLVHPVSGVRKEQGGGCHSDT
chain 2: B1 chain 1

Variants of: B1
Experiment: dcFRAP
Conditions: with Frizzled 6 (FZD6), GFP channel (FZD6-GFP dimer mutant), without CL (before biotin-anti-V5/avidin surface crosslinking of V5-FZD6-mCherry), N = 23 ROIs, read off a plot

Row | Variant | response (% of pre-bleach)
1 | chain 1 D347A R350A Y351A | 85

Same assay, conditions: with Frizzled 6 (FZD6), GFP channel (FZD6-GFP dimer control mutant), without CL (before crosslinking of V5-FZD6-mCherry), N = 75 ROIs, read off a plot

Row | Variant | response (% of pre-bleach)
2 | chain 1 D347E R350K Y351F | 85
